This note sets out measurements from patent US20190231821A1 (published 2019).

This experiment addresses T1, human endogenous retrovirus-E (HERV-E); CT-RCC-1 peptide peptide on HLA-A11 (human).
T1 peptide: ATWLGSKTWK
Description: multimer staining.

B1: HLA-A11 restricted HERV-E TCR (TCR, V domains shown)
Valpha: GIQVEQSPPDLILQEGANSTLRCNFSDSVNNLQWFHQNPWGQLINLFYIPSGTKQNGRLSATTVATERYSLLYISSSQTTDSGVYFCAVRGGADGLTFGKGTHLIIQP
Vbeta: DTEVTQTPKHLVMGMTNKKSLKCEQHMGHRAMYWYKQKAKKPPELMFVYSYEKLSINESVPSRFSPECPNSSLLNLHLHALQPEDSALYLCASSPPNEKLFFGSGTQLSVL
With B1, the binding result is “recognises”.
